This assay has as its target T1, GST-fusion HMGB1 protein (Wister rat HMGB1, full length, expressed from pGEX-3X) (rat (Wister), UniProt P63159 2-215).
T1 construct: mature; GST served as the negative control protein in screening; also called HMGB1 solid-phase plate; not shown: glutathione S-transferase (GST) tag of the pGEX-3X vector
T1 sequence (looked up): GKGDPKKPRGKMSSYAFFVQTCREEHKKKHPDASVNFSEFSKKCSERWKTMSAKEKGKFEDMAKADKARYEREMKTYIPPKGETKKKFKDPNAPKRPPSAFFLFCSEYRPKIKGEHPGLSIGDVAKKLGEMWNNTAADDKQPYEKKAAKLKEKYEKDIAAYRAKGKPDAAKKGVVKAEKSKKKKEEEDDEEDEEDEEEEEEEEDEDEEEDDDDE
Briefly: ELISA on GST-fusion HMGB1 and SPR (FIGS. 1A and 1B). The method, then: Then, to select anti-HMGB1 monoclonal antibodies, the ELISA method was carried out as described below. First, part of the culture solution after 2 weeks was sampled and added in […] to a microplate in which 250 ng/well of the HMGB1 protein or the negative control protein (GST) was immobilized. Subsequently, reaction was carried out at room temperature for 1 hour, followed by washing with PBS three times. A secondary antibody (HRP-labeled anti-mouse IgG, manufactured by MEDICAL & BIOLOGICAL LABORATORIES CO., LTD., code number 330) was diluted in accordance with the package insert and added in 50 μL/well, which was reacted for one hour at room temperature, followed by washing with PBS three times after the reaction. Thereafter, a TMB reagent (MOSS, Inc., Chicago, Ill., USA, USA) was added in 50 μL/well, followed by enzyme chromogenic reaction for 15 minutes. Subsequently, after the enzyme reaction was stopped with 1.5 N phosphoric acid, the absorbance was measured with a plate reader with 450 nm (reference 630 nm) to select clones that reacts specifically with the HMGB1 solid-phase plate, establishing anti-HMGB1 monoclonal antibodies.
Background: In an ELISA, binding on a coated surface is turned into a signal by an enzyme label.

B1: anti-HMGB1 monoclonal antibody (2C8C) (antibody, V domains shown)
VH: QVQLQQSGPELVKPGASVKLSCKASGYTFTDYTIHWVKQSPGQGLEWIGWIYPGSGNTKYNDKFKGKATMTADKSSSTAYMQLSSLTSEDSAVYFCARGFAYWGQGTLVTVSA
VL: DIVLTQSPATLSVTPGDSVSLSCRASQSISNNLHWYQQKSHESPRLLIKYASQSISGIPSRFSGSGSGTDFTLSINSVETEDFGMYFCQQTNSWPLTFGAGTKLELK
notes: also called 2C8C antibody; clone 2C8C
As to B1, the binding result is given as “binds”.

For the origin of these results see patent US20190211092A1 (NATIONAL UNIVERSITY CORPORATION TOKYO MEDICAL AND DENTAL …, published 2019).
